Assay results: patent US20100150902A1 (published 2010)

T1: human CD151 protein (human, UniProt P48509 1-253)
T1 construct: whole, on cells; in HT-29 cell lysate in the Western blots; also called PETA-3; SFA-1
T1 sequence (looked up): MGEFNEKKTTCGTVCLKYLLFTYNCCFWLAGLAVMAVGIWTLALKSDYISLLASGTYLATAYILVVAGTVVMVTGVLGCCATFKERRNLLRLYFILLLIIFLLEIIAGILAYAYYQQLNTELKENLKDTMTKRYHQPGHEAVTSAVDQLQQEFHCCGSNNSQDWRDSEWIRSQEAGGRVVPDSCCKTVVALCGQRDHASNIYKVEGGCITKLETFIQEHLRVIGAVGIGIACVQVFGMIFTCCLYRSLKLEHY

T2: recombinant extracellular loop EC2 of human CD151 (amino acids 130 to 221, C-terminal Poly-His tail) (human, UniProt P48509 130-221)
T2 construct: range 130-221; Expressed in soluble form in the periplasm of E. coli from pET22b and purified by IMAC; also called recombinant EC2; recombinant EC2 loop; not shown: Poly-His tail at the C-terminal position
T2 sequence (looked up): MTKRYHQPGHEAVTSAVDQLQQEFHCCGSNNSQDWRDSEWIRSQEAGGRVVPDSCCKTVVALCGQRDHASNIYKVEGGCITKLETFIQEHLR


Columns and labels:
[1] = biological target: T1, human CD151 protein; assay: flow cytometry, 10 µg/ml antibody on DU145 cells
Experimental: (§1) The flow cytometry analyses are carried out on 96-well plates. The undiluted hybridoma supernatants are added to 100000 PC3 cells previously introduced into the wells. After incubation for 20 minutes at +4° C. followed by washing, an Alexa488-labelled goat anti-mouse IgG polyclonal antibody (Molecular Probes, dilution to 1/500) is added. The fluorescence intensity (MFI) is determined with the aid of a cytofluorimeter after further incubation for 20 minutes at +4° C.
(§2) The isotypes of the antibodies produced were determined for each culture supernatant using a murine antibody isotyping kit (SBA clonotyping system, Southern Biotech), and then final characterisation was carried out by ELISA (extracellular loop EC2) and by flow cytometry on the murine line NIH 3T3 and the stable transfectant NIH 3T3-CD151, and then on human tumour lines of lung cancer A549, prostate cancer DU145 and pancreatic cancer BxPC3 under the conditions previously described. The antibody concentration of the supernatants was adjusted to 5 μg/ml for the ELISA and to 10 μg/ml for the flow cytometry analyses.

[2] = biological target: T1, human CD151 protein; assay: flow cytometry, 10 µg/ml antibody on BxPC3 cells
Experimental: as §1, §2

[3] = biological target: T1, human CD151 protein; assay: saturation binding of 125I-labelled antibody to PC3 cells, 1 hour at 4°C, Scatchard analysis
Experimental: The affinity of the 2 radiolabelled antibodies for their CD151 target on the cell surface was then measured for PC3 prostate cancer cells. The dissociation constant KD of the antibodies was determined by the method of Scatchard. […] After incubation, the total radioactivity associated with the cells (fixed radiolabelled antibody) was measured using a gamma counter. The non-specific fixing was determined, for each concentration tested, in the presence of an excess of non-radiolabelled antibody (×100). The specific fixing is calculated by subtracting the non-specific radioactivity from the total radioactivity.

[4] = biological target: T1, human CD151 protein; assay: flow cytometry, undiluted hybridoma supernatant on PC3 cells
Experimental: as §1

[5] = biological target: T2, recombinant extracellular loop EC2 of …; assay: ELISA, clone supernatant at 5 µg/ml antibody on coated recombinant EC2 loop
Experimental: (§3) For the ELISA, 96-well plates are sensitised for 1 night at +4° C. with the recombinant extracellular loop EC2 at 5 μg/ml in PBS. After washing with PBS, the wells are saturated with 0.5% gelatin solution in PBS for 1 hour at 37° C. and then washed again with PBS. The hybridoma culture supernatants are evaluated without dilution (incubation for 1 hour at 37° C.). The antibodies fixed to the immobilised EC2 loop are detected by successive incubation with a peroxidase-conjugated goat anti-mouse IgG polyclonal antibody (Jackson/USA, dilution to 1/5000, 1 hour at 37° C.) and then with a peroxidase substrate (TMB, Interchim/France, 10 minutes at ambient temperature). The reaction is stopped by addition of 1M sulfuric acid and the optical density (OD) is measured at 450 nm.
The antibody concentration of the supernatants was adjusted to 5 μg/ml for the ELISA and to 10 μg/ml for the flow cytometry analyses.

[6] = biological target: T2, recombinant extracellular loop EC2 of …; assay: ELISA, undiluted hybridoma supernatant on coated recombinant EC2 loop (5 µg/ml)
Experimental: as §3

[7] = biological target: T1, human CD151 protein; assay: flow cytometry, 10 µg/ml antibody on NIH3T3-CD151 transfectant cells
Experimental: as §1, §2

[8] = biological target: T1, human CD151 protein; assay: flow cytometry, 10 µg/ml antibody on A549 cells
Experimental: as §1, §2

[9] = biological target: T2, recombinant extracellular loop EC2 of …; assay: competition ELISA on coated recombinant EC2; competitor murine 203B6 at 80 ng/ml, detected with anti-mouse IgG
Experimental: (§4) Briefly, 96-well ELISA plates were coated with recombinant EC2 at 5 μg/ml in PBS overnight at 4° C. […] For control experiments, no murine antibody was added. Horseradish peroxidase-conjugated polyclonal goat anti-mouse IgG was added at a 1/5000 dilution in PBS and incubated for 1 h at 37° C. After incubation with the peroxidase substrate TMB for 10 min at room temperature, the reaction was stopped with 1 M sulfuric acid and the optical density at 450 nm was measured.

[10] = biological target: T2, recombinant extracellular loop EC2 of …; assay: competition ELISA on coated recombinant EC2; competitor murine 214B2 at 80 ng/ml, detected with anti-mouse IgG
Experimental: as §4

Row | Binder | MFI [1] [MFI] | MFI [2] [MFI] | Kd [3] [nM] | MFI [4] [MFI] | OD at 450 nm [5] [OD at 450 nm] | OD 450 nm [6] [OD 450 nm] | MFI [7] [MFI] | MFI [8] [MFI] | IC50 [9] [µg/mL] | IC50 [10] [µg/mL]
1 | murine monoclonal antibody 203B6 (hybridoma CNCM I-3920) (antibody, mouse IgG1, V domains shown, also called 203B6 cl1A; [125I]-203B6) VH: EVKLVESGGGLVQPGGSLKLSCAASGFTFSTYTMSWVRQTPEKRLEWVAYISSGGGTTYYPDTVKGRFTISRDNARNTLYLQMNSLKSEDTAMYYCATPRIGTGFAYWGQGTLVTVSA VL: DIVLSQSPASLALSLGQRATISCRASASVEYYGTSLMHWYQQKPGQPPKLLIYEASNVESGVPARFSGSGSGTDFSLNIHPVEEDDLAIYFCQQSRKAPYTFGGGTKLEIK | 860 | 768 | 12.8 | 975 | 2.22 | 1.13 | 540 | 675 |  | 
2 | chimeric antibody c203B6[IgG1] (antibody, V domains shown, Variable domains of murine 203B6 fused to human Ckappa and human IgG1 constant domains; made in HEK293/EBNA cells; VL' and 'IgG1 Chim) VH: EVKLVESGGGLVQPGGSLKLSCAASGFTFSTYTMSWVRQTPEKRLEWVAYISSGGGTTYYPDTVKGRFTISRDNARNTLYLQMNSLKSEDTAMYYCATPRIGTGFAYWGQGTLVTVSA VL: DIVLSQSPASLALSLGQRATISCRASASVEYYGTSLMHWYQQKPGQPPKLLIYEASNVESGVPARFSGSGSGTDFSLNIHPVEEDDLAIYFCQQSRKAPYTFGGGTKLEIKR |  |  |  |  |  |  |  |  | 0.71 | 
3 | murine monoclonal antibody 211F3 (hybridoma CNCM I-3918) (antibody, mouse IgG1, V domains shown, also called 211F3 cl1A) VH: EVKLVESGGDLVQPGGSLKLSCAASGFTFSTYTMSWVRQTPEKRLEWVAYISSGGVTTYYPDTIKGRFTISRDNAKNTLFLQMNSLKSEDTAMYYCTSPRTGTGFAYWGQGTLVTVSA VL: DIVLTQSPASLALSLGQRATISCRASASVDYYGTSLMQWYQQKPGQPPKLLIYEASNVESGVPARFSGSGSGTDFSLNIHPVEEDDLAIYFCQQSRKAPYTFGGGTKLEIK | 524 | 536 |  | 936 | 2.3 | 0.959 | 556 | 481 |  | 
4 | murine monoclonal antibody 205H8 (hybridoma CNCM I-3921) (antibody, mouse IgG3, V domains shown, also called 205H8 cl1A) VH: not shown VL: DIVMTQSQKFMSTSEGDRVSITCKASQNVGIAVAWYQQKPGQSPKLLIYSASNRYTGVPDRFTGSGSGTDFTLTISNMQSEDLADYFCQQYSSNPTFGAGTKLELK | 584 | 350 |  | 595 | 1.84 | 0.649 | 332 | 388 |  | 
5 | murine monoclonal antibody 214B2 (hybridoma CNCM I-3919) (antibody, mouse IgG1, V domains shown, also called 214B2 cl1A; [125I]-214B2) VH: QVQLQQPGSVLVRPGASVKLSCKASGYTFTSSSMHWAKQRPGQGLEWIGEIHPNSGNTNNNEKFKGKATLTVDTSSSTAYVDLSSLSSEDSAVYYCARARSFYYAMDCWGQGTSVTVSS VL: NIVMTQSPKSMSMSVGERVTLSCKASENVGTYVSWYQQKPEQSPKLLIYGASNRYTGVPDRFTGSGSATDFTLTISSVQAEDLADYHCGQTYSFPYTFGGGTKLEIK | 1330 | 849 | 6.38 | 1000 | 2.48 | 0.684 | 748 | 820 |  | 
6 | chimeric antibody c214B2[IgG1] (antibody, V domains shown, Variable domains of murine 214B2 fused to human Ckappa and human IgG1 constant domains; made in HEK293/EBNA cells; VL' and 'IgG1 Chim) VH: QVQLQQPGSVLVRPGASVKLSCKASGYTFTSSSMHWAKQRPGQGLEWIGEIHPNSGNTNNNEKFKGKATLTVDTSSSTAYVDLSSLSSEDSAVYYCARARSFYYAMDCWGQGTSVTVSS VL: NIVMTQSPKSMSMSVGERVTLSCKASENVGTYVSWYQQKPEQSPKLLIYGASNRYTGVPDRFTGSGSATDFTLTISSVQAEDLADYHCGQTYSFPYTFGGGTKLEIKR |  |  |  |  |  |  |  |  |  | 0.69
